Patent CN112250763A (SANYOU BIOPHARMACEUTICALS SHANGHAI CO LTD; SHANGHAI ZJ BIO …, dated 2021)

Target: S蛋白RBD-His(319Arg-532Asn) (SARS-CoV-2, UniProt P0DTC2 319-532)

B1: R16-F10抗体 (antibody, V domains shown)
VH: QVQLVQSGPEVKEPGSSVKVSCKASGGTFDTAAISWVRQAPGQGPEWMGGIIPIFGTANYAQKFQGRVTITADESTSTAYMELSSLRSEDTAVYYCAREHTVAPVYGFDVWGQGTLVTVSS
VL: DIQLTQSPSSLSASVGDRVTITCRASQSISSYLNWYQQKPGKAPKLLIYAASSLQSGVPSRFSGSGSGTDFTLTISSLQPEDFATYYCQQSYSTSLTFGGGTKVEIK
  EC50: 0.05 µg/mL
